Reference: patent US20260209346A1 (LTZ THERAPEUTICS, published 2026)

Legend:
[1] = target: T1, CD79b endogenously expressed on the cell surface (malignant B cell lines, normal B cells in PBMC, CLL … (human, UniProt P40259 29-229)); test: flow cytometry on Ramos cells; anti-human IgG1-PE; MFI (PE); table under the graph; curve reaches only about 0.3x10^5 at 40 nM
T1 construct: whole, on cells; On cells CD79b stands in the B-cell receptor complex with CD79a and surface Ig; also called cell surface CD79b; endogenous CD79b
T1 sequence (looked up): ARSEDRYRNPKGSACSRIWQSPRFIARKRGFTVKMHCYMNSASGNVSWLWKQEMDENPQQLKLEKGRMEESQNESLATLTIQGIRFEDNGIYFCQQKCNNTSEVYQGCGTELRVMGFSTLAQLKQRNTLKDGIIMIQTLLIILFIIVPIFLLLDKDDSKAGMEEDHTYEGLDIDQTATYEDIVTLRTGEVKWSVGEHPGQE
Protocol: (§1) The binding affinities of anti-CD79b antibodies to malignant B cell lines were tested. […] The cells were then incubated with 100 μl anti-human IgG1-PE (Invitrogen, cat: 12-4998-82), 1:1000 dilution, for 30 min on ice, washed with 200 ul PBS for three times before flow cytometry analysis.

[2] = target: T1, CD79b endogenously expressed on the …; test: flow cytometry on Daudi cells; anti-human IgG1-PE; MFI (PE); table under the graph; curve reaches only about 0.2x10^5 at 40 nM
Protocol: as §1

[3] = target: T2, human CD79b recombinant protein (human, UniProt P40259 29-159); test: ELISA, coated human CD79b recombinant protein
T2 construct: also called human CD79b ECD antigen; recombinant human CD79b ECD
T2 sequence: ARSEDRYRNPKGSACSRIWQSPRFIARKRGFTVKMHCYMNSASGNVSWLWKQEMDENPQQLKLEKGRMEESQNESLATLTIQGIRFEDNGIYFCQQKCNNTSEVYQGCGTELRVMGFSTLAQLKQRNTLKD
Protocol: (§2) Binding affinities of anti-CD79b antibodies to human and cynomolgus CD79b recombinant proteins were tested by ELISA. 1 ug/ml (in PBS buffer) of human or cynomolgus CD79b recombinant proteins were coated on an ELISA plate overnight. ELISA plates were washed and blocked with blocking buffer (PBS+1% BSA) followed by incubation with serially diluted anti-CD79b primary antibodies. Anti-CD79b antibody binding was quantified using an anti-human IgG HRP secondary antibody (Biolegend Catalog #410902) and HRP substrate.

[4] = target: T1, CD79b endogenously expressed on the …; test: flow cytometry on Nalm-6 cells; anti-human IgG1-PE; MFI (PE); table under the graph; fit of a flat curve, far above the highest concentration of 40 nM
Protocol: as §1

[5] = target: T2, human CD79b recombinant protein; test: BLI, antibody captured on anti-human IgG Fc probes, human CD79b in solution, 1:1 model
Protocol: (§3) Binding affinities of anti-CD79b antibodies to human CD79b recombinant proteins were tested by BLI. 10 ug/ml of anti-CD79b antibodies were captured by anti-human IgG Fc probes (Gator Bio Catalog #160024). […] Absolute kD was determined by applying a 1:1 binding model (Global Rmax unlinked).

[6] = target: T3, cynomolgus CD79b recombinant protein (cynomolgus); test: ELISA; cynomolgus CD79b recombinant protein coated at 1 ug/ml; anti-human IgG HRP; OD 450 nm
T3 chain: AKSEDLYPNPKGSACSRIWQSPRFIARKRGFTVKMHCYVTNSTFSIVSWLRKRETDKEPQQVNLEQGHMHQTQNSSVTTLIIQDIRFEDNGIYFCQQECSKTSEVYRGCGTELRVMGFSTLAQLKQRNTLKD
Protocol: as §2

[7] = target: T2, human CD79b recombinant protein; test: BLI; antibody at 10 ug/ml captured on anti-human IgG Fc probes, hCD79b in solution; same value printed in the rows for 18.3 and 9.14 nM hCD79b
Protocol: as §3

[8] = target: T1, CD79b endogenously expressed on the …; test: flow cytometry on BJAB cells; anti-human IgG1-PE; MFI (PE); table under the graph; plateau only about 1.1x10^5 against about 6x10^5 for the others
Protocol: as §1

- EC50 [1]: 11.3 nM
- EC50 [2]: 14.2 nM
- IC50 [3]: 0.17 nM
- EC50 [4]: 508 nM
- Kd [5]: 0.476 nM
- binding result [6]: no binding (tested: about 13 nM)
- koff [7]: 0.000168 s⁻¹
- kon [7]: 353000 M⁻¹ s⁻¹
- EC50 [8]: 0.99 nM
B1: ch29C3 (antibody, human IgG1, kappa, V domains shown)
VH: QSVKESGGGLFKPTDTLTLTCTVSGIDLNNYAMNWVRQAPGKGLDWIGLIGASGSTYYADWAKGRFTISKTSTTVDLKMTSLTTEDTATYFCAIGISATAHTSNIWGPGTLVAVSL
VL: ALVMTQTPSSVSAAVGGTVTINCQASQNIDSNLAWYQQKPGQPPKLLIYDASALASGVPSRFKGSGSGTEYTLTISGVEPDDAATYYCQQDDSSSNVDNPFGGGTEVVVKR
notes: Rabbit/human chimeric IgG1 kappa; also called chimeric 29C3
